We go through six sequences from the supplement of paper PMC5998384.

The subject of data set [1] is HeLa Kyoto. Briefly: thermal stability score vs G1/S (z-score of summed log2 fold changes over temperatures); higher = more thermally stable than in G1/S.
Data set [2] relates to HeLa Kyoto. Briefly: solubility change mitosis vs G1/S (difference of NP-40 vs SDS log2 ratios) (log2 ratio difference); higher = more soluble in mitosis.
In data set [3] the test system is HeLa Kyoto. Briefly: melting temperature (median over replicates), in situ; higher = more thermally stable.
For data set [4], the system named is HeLa Kyoto. Briefly: solubility in G1/S (NP-40 vs SDS abundance) (log2 ratio); higher = more soluble. The following applies: cell cycle stage: G1/S.
[5] abbreviates: cell cycle stage: early G1 (4.5 h after nocodazole release).
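Wherever melting temperature (median over replicates), in situ is given: HeLa Kyoto cells synchronized by double thymidine or nocodazole block, proteins quantified by TMT10plex mass spectrometry, three independent biological replicates.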
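Wherever solubility change mitosis vs G1/S (difference of NP-40 vs SDS log2 ratios) is given: synchronized HeLa Kyoto cells (double thymidine block for G1/S, nocodazole release for mitosis), protein amounts in NP-40 versus SDS lysates quantified by mass spectrometry, three biological replicates.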
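Wherever solubility in G1/S (NP-40 vs SDS abundance) is given: HeLa Kyoto cells arrested at G1/S by double thymidine block, proteins quantified by TMT10plex mass spectrometry in mild NP-40 versus SDS extracts, three biological replicates.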
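Wherever thermal stability score vs G1/S (z-score of summed log2 fold changes over temperatures) is given: synchronized HeLa Kyoto cells, proteins quantified by TMT10plex mass spectrometry, three biological replicates, mitosis taken 0.5 h after nocodazole release, G1/S directly after double thymidine block.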

On to “MLLLPSAADGRGTAITHALTSASTLCQVEPVGRWFEAFVKRRNRNASASFQELEDKKELSEESEDEELQLEEFPMLKTLDPKDWKNQDHYAVLGLGHVRYKATQRQIKAAHKAMVLKHHPDKRKAAGEPIKEGDNDYFTCITKAYEMLSDPVKRRAFNSVDPTFDNSVPSKSEAKDNFFEVFTPVFERNSRWSNKKNVPKLGDMNSSFEDVDIFYSFWYNFDSWREFSYLDEEEKEKAECRDERRWIEKQNRATRAQRKKEEMNRIRTLVDNAYSCDPRIKKFKEEEKAKKEAEKKAKAEAKRKEQEAKEKQRQAELEAARLAKEKEEEEVRQQALLAKKEKDIQKKAIKKERQKLRNSCKTWNHFSDNEAERVKMMEEVEKLCDRLELASLQCLNETLTSCTKEVGKAALEKQIEEINEQIRKEKEEAEARMRQASKNTEKSTGGGGNGSKNWSEDDLQLLIKAVNLFPAGTNSRWEVIANYMNIHSSSGVKRTAKDVIGKAKSLQKLDPHQKDDINKKAFDKFKKEHGVVPQADNATPSERFEGPYTDFTPWTTEEQKLLEQALKTYPVNTPERWEKIAEAVPGRTKKDCMKRYKELVEMVKAKKAAQEQVLNASRAKK [DNAJC2]”, for which the thermal stability score in data set [1] (setting [5]) came to 1.17; in data set [1] (cell cycle stage: mitosis) it was 1.39. The “solubility change mitosis (log2)” value in data set [2] was -0.0365. Besides, the results for the melting temperature in data set [3] (cell cycle stage: G1/S) and in data set [3] (cell cycle stage: mitosis) were 48.6 °C and 48.7 °C, respectively. Moreover, the “solubility in G1/S (log2)” value in data set [4] was found to be 0.0111.
With “MLLPAPALRRALLSRPWTGAGLRWKHTSSLKVANEPVLAFTQGSPERDALQKALKDLKGRMEAIPCVVGDEEVWTSDVQYQVSPFNHGHKVAKFCYADKSLLNKAIEAALAARKEWDLKPIADRAQIFLKAADMLSGPRRAEILAKTMVGQGKTVIQAEIDAAAELIDFFRFNAKYAVELEGQQPISVPPSTNSTVYRGLEGFVAAISPFNFTAIGGNLAGAPALMGNVVLWKPSDTAMLASYAVYRILREAGLPPNIIQFVPADGPLFGDTVTSSEHLCGINFTGSVPTFKHLWKQVAQNLDRFHTFPRLAGECGGKNFHFVHRSADVESVVSGTLRSAFEYGGQKCSACSRLYVPHSLWPQIKGRLLEEHSRIKVGDPAEDFGTFFSAVIDAKSFARIKKWLEHARSSPSLTILAGGKCDDSVGYFVEPCIVESKDPQEPIMKEEIFGPVLSVYVYPDDKYKETLQLVDSTTSYGLTGAVFSQDKDVVQEATKVLRNAAGNFYINDKSTGSIVGQQPFGGARASGTNDKPGGPHYILRWTSPQVIKETHKPLGDWSYAYMQ [ALDH4A1]”, the results for the thermal stability score in data set [1] (setting [5]) and in data set [1] (cell cycle stage: mitosis) were -0.222 and -0.434, respectively. The “solubility change mitosis (log2)” value in data set [2] was -0.0143. Besides, the melting temperature in data set [3] (cell cycle stage: G1/S) came out at 51.8 °C; in data set [3] (cell cycle stage: mitosis) it was 50.7 °C. Also, the “solubility in G1/S (log2)” value in data set [4] was found to be 0.0698.
For the sequence “MLLPNILLTGTPGVGKTTLGKELASKSGLKYINVGDLAREEQLYDGYDEEYDCPILDEDRVVDELDNQMREGGVIVDYHGCDFFPERWFHIVFVLRTDTNVLYERLETRGYNEKKLTDNIQCEIFQVLYEEATASYKEEIVHQLPSNKPEELENNVDQILKWIEQWIKDHNS [AK6]”, the thermal stability score stood at 1.22 in data set [1] (setting [5]) and 1.07 in data set [1] (cell cycle stage: mitosis). The “solubility change mitosis (log2)” value in data set [2] is -0.0162. Also, the melting temperature in data set [3] (cell cycle stage: G1/S) is 46.9 °C; in data set [3] (cell cycle stage: mitosis), 49.8 °C. The “solubility in G1/S (log2)” value in data set [4] was determined as 0.193.
With “MLLTVYCVRRDLSEVTFSLQVDADFELHNFRALCELESGIPAAESQIVYAERPLTDNHRSLASYGLKDGDVVILRQKENADPRPPVQFPNLPRIDFSSIAVPGTSSPRQRQPPGTQQSHSSPGEITSSPQGLDNPALLRDMLLANPHELSLLKERNPPLAEALLSGDLEKFSRVLVEQQQDRARREQERIRLFSADPFDLEAQAKIEEDIRQQNIEENMTIAMEEAPESFGQVVMLYINCKVNGHPVKAFVDSGAQMTIMSQACAERCNIMRLVDRRWAGIAKGVGTQKIIGRVHLAQVQIEGDFLPCSFSILEEQPMDMLLGLDMLKRHQCSIDLKKNVLVIGTTGSQTTFLPEGELPECARLAYGAGREDVRPEEIADQELAEALQKSAEDAERQKP [DDI2]”, the thermal stability score is -0.385 in data set [1] (setting [5]) and 0.166 in data set [1] (cell cycle stage: mitosis). Besides, in data set [2], the “solubility change mitosis (log2)” value is -0.11. Moreover, the melting temperature in data set [3] (cell cycle stage: G1/S) stood at 52.8 °C; in data set [3] (cell cycle stage: mitosis), 53 °C. The “solubility in G1/S (log2)” value in data set [4] came to 0.489.
In the case of “MLNMWKVRELVDKATNVVMNYSEIESKVREATNDDPWGPSGQLMGEIAKATFMYEQFPELMNMLWSRMLKDNKKNWRRVYKSLLLLAYLIRNGSERVVTSAREHIYDLRSLENYHFVDEHGKDQGINIRQKVKELVEFAQDDDRLREERKKAKKNKDKYVGVSSDSVGGFRYSERYDPEPKSKWDEEWDKNKSAFPFSDKLGELSDKIGSTIDDTISKFRRKDREDSPERCSDSDEEKKARRGRSPKGEFKDEEETVTTKHIHITQATETTTTRHKRTANPSKTIDLGAAAHYTGDKASPDQNASTHTPQSSVKTSVPSSKSSGDLVDLFDGTSQSTGGSADLFGGFADFGSAAASGSFPSQVTATSGNGDFGDWSAFNQAPSGPVASSGEFFGSASQPAVELVSGSQSALGPPPAASNSSDLFDLMGSSQATMTSSQSMNFSMMSTNTVGLGLPMSRSQNTDMVQKSVSKTLPSTWSDPSVNISLDNLLPGMQPSKPQQPSLNTMIQQQNMQQPMNVMTQSFGAVNLSSPSNMLPVRPQTNALIGGPMPMSMPNVMTGTMGMAPLGNTPMMNQSMMGMNMNIGMSAAGMGLTGTMGMGMPNIAMTSGTVQPKQDAFANFANFSK [CLINT1]”, the thermal stability score in data set [1] (setting [5]) stood at 1.76; in data set [1] (cell cycle stage: mitosis), 3.07. Further, in data set [2], the “solubility change mitosis (log2)” value is -0.108. For the same sequence, the melting temperature in data set [3] (cell cycle stage: G1/S) amounted to 51.6 °C; in data set [3] (cell cycle stage: mitosis), 51.9 °C. The “solubility in G1/S (log2)” value in data set [4] was -0.186.
With “MLNVPSQSFPAPRSQQRVASGGRSKVPLKQGRSLMDWIRLTKSGKDLTGLKGRLIEVTEEELKKHNKKDDCWICIRGFVYNVSPYMEYHPGGEDELMRAAGSDGTELFDQVHRWVNYESMLKECLVGRMAIKPAVLKDYREEEKKVLNGMLPKSQVTDTLAKEGPSYPSYDWFQTDSLVTIAIYTKQKDINLDSIIVDHQNDSFRAETIIKDCLYLIHIGLSHEVQEDFSVRVVESVGKIEIVLQKKENTSWDFLGHPLKNHNSLIPRKDTGLYYRKCQLISKEDVTHDTRLFCLMLPPSTHLQVPIGQHVYLKLPITGTEIVKPYTPVSGSLLSEFKEPVLPNNKYIYFLIKIYPTGLFTPELDRLQIGDFVSVSSPEGNFKISKFQELEDLFLLAAGTGFTPMVKILNYALTDIPSLRKVKLMFFNKTEDDIIWRSQLEKLAFKDKRLDVEFVLSAPISEWNGKQGHISPALLSEFLKRNLDKSKVLVCICGPVPFTEQGVRLLHDLNFSKNEIHSFTA [CYB5R4]”, the figures for the thermal stability score in data set [1] (setting [5]) and in data set [1] (cell cycle stage: mitosis) were -0.0239 and -0.629, respectively. For the same sequence, the “solubility change mitosis (log2)” value in data set [2] was -0.0937. Besides, the melting temperature in data set [3] (cell cycle stage: G1/S) is 53.6 °C; in data set [3] (cell cycle stage: mitosis), 53.7 °C. For the same sequence, in data set [4], the “solubility in G1/S (log2)” value was 0.0176.
